Residue numbers refer to the chain shown, from its start. Numbers in names are those of the source.

The chains are these.
T1: FLAG-tagged PlexinA4 extracellular region (mouse, UniProt Q80UG2 33-1226)
T1 construct: mouse PlexinA4 residues 33–1226, extracellular region; FLAG inserted immediately after the signal peptide; also called PlexinA4-WT; source: Expi293F, purified from medium (Ni-NTA, Superose 6); not shown: FLAG, N-terminal, kept
T1 sequence (looked up): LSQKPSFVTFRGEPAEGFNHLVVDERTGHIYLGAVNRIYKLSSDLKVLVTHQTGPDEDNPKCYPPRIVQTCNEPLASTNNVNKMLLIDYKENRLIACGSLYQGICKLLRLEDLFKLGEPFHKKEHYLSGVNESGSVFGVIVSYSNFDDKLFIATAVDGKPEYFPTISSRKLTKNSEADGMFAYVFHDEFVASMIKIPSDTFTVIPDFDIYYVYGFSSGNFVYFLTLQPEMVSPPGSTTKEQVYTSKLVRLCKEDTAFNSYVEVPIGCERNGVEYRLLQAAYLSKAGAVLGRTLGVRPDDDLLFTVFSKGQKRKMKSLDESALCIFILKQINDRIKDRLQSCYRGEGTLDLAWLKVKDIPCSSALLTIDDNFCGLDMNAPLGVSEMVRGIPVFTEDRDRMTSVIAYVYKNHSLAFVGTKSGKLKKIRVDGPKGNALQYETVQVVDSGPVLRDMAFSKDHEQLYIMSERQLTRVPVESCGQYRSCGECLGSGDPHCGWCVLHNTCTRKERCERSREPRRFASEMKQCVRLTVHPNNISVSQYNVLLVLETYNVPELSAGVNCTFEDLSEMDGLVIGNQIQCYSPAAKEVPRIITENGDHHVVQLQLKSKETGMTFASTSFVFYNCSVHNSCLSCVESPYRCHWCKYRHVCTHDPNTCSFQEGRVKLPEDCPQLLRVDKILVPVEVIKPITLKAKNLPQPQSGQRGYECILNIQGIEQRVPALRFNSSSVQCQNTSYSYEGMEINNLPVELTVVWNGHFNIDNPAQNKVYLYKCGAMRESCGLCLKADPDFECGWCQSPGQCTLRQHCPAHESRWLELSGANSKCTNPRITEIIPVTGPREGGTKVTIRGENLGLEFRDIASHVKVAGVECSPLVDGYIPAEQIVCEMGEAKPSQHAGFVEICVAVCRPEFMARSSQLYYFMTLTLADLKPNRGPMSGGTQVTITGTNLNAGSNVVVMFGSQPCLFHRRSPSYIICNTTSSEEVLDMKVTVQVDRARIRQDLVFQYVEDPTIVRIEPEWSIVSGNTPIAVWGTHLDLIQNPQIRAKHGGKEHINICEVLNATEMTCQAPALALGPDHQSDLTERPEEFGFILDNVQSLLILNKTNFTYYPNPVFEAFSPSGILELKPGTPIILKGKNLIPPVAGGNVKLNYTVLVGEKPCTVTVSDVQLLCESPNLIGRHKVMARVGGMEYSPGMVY

T2: FLAG-tagged PlexinA4 extracellular region K343E (mouse, UniProt Q80UG2 33-1226, K343E)
T2 construct: mouse PlexinA4 residues 33–1226, extracellular region, K343E; also called PlexinA4-K343E; source: Expi293F, purified from medium (Ni-NTA, Superose 6); not shown: FLAG, N-terminal, kept
T2 sequence (looked up): T1 sequence (looked up) with K311E

B1: Nrp1-a1a2b1b2 (receptor, mouse, UniProt P97333 22-588, looked up)
chain: FRSDKCGGTIKIENPGYLTSPGYPHSYHPSEKCEWLIQAPEPYQRIMINFNPHFDLEDRDCKYDYVEVIDGENEGGRLWGKFCGKIAPSPVVSSGPFLFIKFVSDYETHGAGFSIRYEIFKRGPECSQNYTAPTGVIKSPGFPEKYPNSLECTYIIFAPKMSEIILEFESFDLEQDSNPPGGMFCRYDRLEIWDGFPEVGPHIGRYCGQKTPGRIRSSSGVLSMVFYTDSAIAKEGFSANYSVLQSSISEDFKCMEALGMESGEIHSDQITASSQYGTNWSVERSRLNYPENGWTPGEDSYKEWIQVDLGLLRFVTAVGTQGAISKETKKKYYVKTYRVDISSNGEDWISLKEGNKAIIFQGNTNPTDVVLGVFSKPLITRFVRIKPVSWETGISMRFEVYGCKITDYPCSGMLGMVSGLISDSQITASNQADRNWMPENIRLVTSRTGWALPPSPHPYTNEWLQVDLGDEKIVRGVIIQGGKHRENKVFMRKFKIAYSNNGSDWKTIMDDSKRKAKSFEGNNNYDTPELRTFSPLSTRFIRIYPERATHSGLGLRMELLGCEVEAP
notes: mouse Neuropilin 1 residues 22–588, domains a1, a2, b1 and b2; also called MAM-domain truncated version of Nrp1; Nrp1-WT; source: Expi293F, transfected alone or co-expressed with Sema3A and PlexinA4, purified from medium (Ni-NTA, Superose 6)
B2: Nrp1-a1a2b1b2 H74A (receptor, mouse, UniProt P97333 22-588, looked up)
chain: B1 chain with H53A
notes: mouse Neuropilin 1 residues 22–588 (a1a2b1b2) with H74A; also called H74A mutation of Nrp1; source: Expi293F, purified from medium (Ni-NTA, Superose 6)
B3: Nrp1-a1a2b1b2 E128R (receptor, mouse, UniProt P97333 22-588, looked up)
chain: B1 chain with E107R
notes: mouse Neuropilin 1 residues 22–588 (a1a2b1b2) with E128R; also called Nrp1-E128R; source: Expi293F, purified from medium (Ni-NTA, Superose 6)
B4: Nrp1-a1a2b1b2 A252E (receptor, mouse, UniProt P97333 22-588, looked up)
chain: B1 chain with A231E
notes: mouse Neuropilin 1 residues 22–588 (a1a2b1b2) with A252E; also called Nrp1-A252E; A252E mutant; source: Expi293F, purified from medium (Ni-NTA, Superose 6)
B5: Nrp1-a1a2b1b2 S251E (receptor, mouse, UniProt P97333 22-588, looked up)
chain: B1 chain with S230E
notes: mouse Neuropilin 1 residues 22–588 (a1a2b1b2) with S251E; also called Nrp1-S251E; source: Expi293F, purified from medium (Ni-NTA, Superose 6)
B6: Sema3A (21–770) (ligand, mouse, UniProt O08665 21-770, looked up)
chain: NYANGKNNVPRLKLSYKEMLESNNVITFNGLANSSSYHTFLLDEERSRLYVGAKDHIFSFNLVNIKDFQKIVWPVSYTRRDECKWAGKDILKECANFIKVLEAYNQTHLYACGTGAFHPICTYIEVGHHPEDNIFKLQDSHFENGRGKSPYDPKLLTASLLIDGELYSGTAADFMGRDFAIFRTLGHHHPIRTEQHDSRWLNDPRFISAHLIPESDNPEDDKVYFFFRENAIDGEHSGKATHARIGQICKNDFGGHRSLVNKWTTFLKARLICSVPGPNGIDTHFDELQDVFLMNSKDPKNPIVYGVFTTSSNIFKGSAVCMYSMSDVRRVFLGPYAHRDGPNYQWVPYQGRVPYPRPGTCPSKTFGGFDSTKDLPDDVITFARSHPAMYNPVFPINNRPIMIKTDVNYQFTQIVVDRVDAEDGQYDVMFIGTDVGTVLKVVSVPKETWHDLEEILLEEMTVFREPTTISAMELSTKQQQLYIGSTAGVAQLPLHRCDIYGKACAECCLARDPYCAWDGSSCSRYFPTAKARTRAQDIRNGDPLTHCSDLQHHDNHHGPSLEERIIYGVENSSTFLECSPKSQRALVYWQFQRRNEDRKEEIRMGDHIIRTEQGLLLRSLQKKDSGNYLCHAVEHGFMQTLLKVTLEVIDTEHLEELLHKDDDGDGSKIKEMSSSMTPSQKVWYRDFMQLINHPNLNTMDEFCEQVWKRDAAQAAQRPGHSQGSSNKWKHMQESKKGANRATHEFERAPR
notes: mouse Sema3A residues 21–770, ending at Arg770; internal furin sites mutated; without the A106K mutation; PDB 7M0R holds the A106K form; also called Sema3A-WT; wild-type Sema3A; source: Expi293F, purified from medium (Ni-NTA, Superose 6)
B7: Sema3A (21–770) K497E (ligand, mouse, UniProt O08665 21-770, looked up)
chain: B6 chain with K477E
notes: mouse Sema3A residues 21–770 with K497E; internal furin sites mutated; without A106K; also called Sema3A-K497E; Seme3A-K497E; source: Expi293F, purified from medium (Ni-NTA, Superose 6)
B8: Sema3A (21–770) F386A (ligand, mouse, UniProt O08665 21-770, looked up)
chain: B6 chain with F366A
notes: mouse Sema3A residues 21–770 with F386A; internal furin sites mutated; without A106K; also called F386A mutation of Sema3A; source: Expi293F, purified from medium (Ni-NTA, Superose 6)

The target in one test is T1, FLAG-tagged PlexinA4 extracellular …. Nature of the test: pull-down; FLAG-tagged PlexinA4 (20 µg) on anti-FLAG antibody resin; Nrp1 and Sema3A, 30 µg each, added together; 20 mM HEPES (pH 7.5), 150 mM NaCl, 1 mM CaCl2, 4 °C, 1 h; SDS-PAGE, Coomassie blue. Particulars: both partners purified.
As to B1, the binding result is “binds”.

For the molecule B2, the binding result is on record as “binds”.

Turning to B3, the binding result was “binds”.

On to B4, for which the binding result is “binds”.

For B5, the binding result is given as “binds”.

As for B6, the binding result is “binds”.

On to B7, for which the binding result is given as “binds”.

Take B8: the binding result is “binds”.

The next test addresses T2, FLAG-tagged PlexinA4 extracellular …. The description is as above. Particulars: both partners purified.
Consider B1, for which the binding result is listed as “binds”.

Consider B6, for which the binding result is given as “binds”.

Source of the values: PMC8155012, “Architecture of the Sema3A/PlexinA4/Neuropilin tripartite complex” (Nature Communications, 2021).
